Experimental data as given in PMC3095670.
Read-outs that look alike come from different tables or passages of the source.

Experiments:
[1] = biological target: T1, DNA polymerase beta 8-kDa domain (isolated) (rat, UniProt P06766 1-87); test: FRET
[2] = biological target: T1, DNA polymerase beta 8-kDa domain …; test: fluorescence titration
[3] = biological target: T2, DNA polymerase beta, intact (rat, UniProt P06766 1-335); test: fluorescence titration
[4] = biological target: T2, DNA polymerase beta, intact; test: fluorescence titration; remark: listed apart in the source

TTTTTTTTTTTTTTTTTTTT (ssDNA) [5'-Fl-dT(pT)19-CP-3']
binding result [1]: binds

AAAAAAAAAA (ssDNA, all adenines 1,N6-etheno-A (chloroacetaldehyde)) [dεA(pεA)9]
binding result [2]: binds

AAAAAAAAAAAAAA (ssDNA, all adenines 1,N6-etheno-A (chloroacetaldehyde)) [dεA(pεA)13]
binding result [3]: binds

AAAAAAAAAAAAAAAAAAAA (ssDNA, all adenines 1,N6-etheno-A (chloroacetaldehyde)) [dεA(pεA)19]
binding result [4]: binds
